B1: G39D: 7β-HSDH from Collinsella aerofaciens with substitution G39D, produced as described in WO 2012/080504 (protein)
chain: MNLREKYGEWGLILGATEGVGKAFCEKIAAGGMNVVMVDRREEKLNVLAGEIRETYGVETKVVRADFSQPGAAETVFAATEGLDMGFMSYVACLHSFGKIQDTPWEKHEAMINVNVVTFLKCFHHYMRIFAAQDRGAVINVSSMTGISSSPWNGQYGAGKAFILKMTEAVACECEGTGVDVEVITLGTTLTPSLLSNLPGGPQGEAVMKIALTPEECVDEAFEKLGKELSVIAGQRNKDSVHDWKANHTEDEYIRYMGSFYRD
B2: DFKG: 7β-HSDH mutant with amino acid substitutions G39D R40F R41K K44G compared to the wild type sequence (protein)
chain: MNLREKYGEWGLILGATEGVGKAFCEKIAAGGMNVVMVDFKEEGLNVLAGEIRETYGVETKVVRADFSQPGAAETVFAATEGLDMGFMSYVACLHSFGKIQDTPWEKHEAMINVNVVTFLKCFHHYMRIFAAQDRGAVINVSSMTGISSSPWNGQYGAGKAFILKMTEAVACECEGTGVDVEVITLGTTLTPSLLSNLPGGPQGEAVMKIALTPEECVDEAFEKLGKELSVIAGQRNKDSVHDWKANHTEDEYIRYMGSFYRD
B3: DF: 7β-HSDH mutant with amino acid substitutions G39D R40F compared to the wild type sequence (protein)
chain: MNLREKYGEWGLILGATEGVGKAFCEKIAAGGMNVVMVDFREEKLNVLAGEIRETYGVETKVVRADFSQPGAAETVFAATEGLDMGFMSYVACLHSFGKIQDTPWEKHEAMINVNVVTFLKCFHHYMRIFAAQDRGAVINVSSMTGISSSPWNGQYGAGKAFILKMTEAVACECEGTGVDVEVITLGTTLTPSLLSNLPGGPQGEAVMKIALTPEECVDEAFEKLGKELSVIAGQRNKDSVHDWKANHTEDEYIRYMGSFYRD
B4: G39D R40I: previously reported 7β-HSDH double mutant G39D R40I, reference, previously most active mutant (protein)
chain: MNLREKYGEWGLILGATEGVGKAFCEKIAAGGMNVVMVDIREEKLNVLAGEIRETYGVETKVVRADFSQPGAAETVFAATEGLDMGFMSYVACLHSFGKIQDTPWEKHEAMINVNVVTFLKCFHHYMRIFAAQDRGAVINVSSMTGISSSPWNGQYGAGKAFILKMTEAVACECEGTGVDVEVITLGTTLTPSLLSNLPGGPQGEAVMKIALTPEECVDEAFEKLGKELSVIAGQRNKDSVHDWKANHTEDEYIRYMGSFYRD
B5: DFK: 7β-HSDH mutant with amino acid substitutions G39D R40F R41K compared to the wild type sequence (protein)
chain: MNLREKYGEWGLILGATEGVGKAFCEKIAAGGMNVVMVDFKEEKLNVLAGEIRETYGVETKVVRADFSQPGAAETVFAATEGLDMGFMSYVACLHSFGKIQDTPWEKHEAMINVNVVTFLKCFHHYMRIFAAQDRGAVINVSSMTGISSSPWNGQYGAGKAFILKMTEAVACECEGTGVDVEVITLGTTLTPSLLSNLPGGPQGEAVMKIALTPEECVDEAFEKLGKELSVIAGQRNKDSVHDWKANHTEDEYIRYMGSFYRD

Key:
Format in all cases: biochemical
[1] = Enzyme kinetic study of 7β-HSDH mutants, DHCA kinetics with NADH as cofactor; settings: 0.5 mM NADH; for vmax (maximal specific enzyme activity): substrate DHCA
Description: (§1) Enzyme activity determinations were performed at 30° C. in the microtiter plate photometer with a sample volume of 250 μL, in which the change in the NAD(P)H concentration (ε 340=6.22 mL μmol^−1 cm^−1) was monitored at a wavelength of λ=340 nm. Here, the activities were determined by linear regression in the part of the reaction proceeding linearly. For this, the sample to be tested was appropriately diluted with potassium phosphate buffer (50 mM, pH 8.0) and treated with substrate and cofactor. The final concentrations of substrate and cofactor were 10 mM DHCA and 100 μM NADPH for 7β-HSDH, 10 mM DHCA and 100 μM NADH for 3α-HSDH, and 200 mM glucose and 1000 μM NAD(P) for GDH.
The mutants created were assessed by means of enzyme kinetic studies. For the study of the DHCA kinetics, 0.5 mM NADH was used as the cofactor (FIG. 9), while for the study of the NADH kinetics, 10 mM DHCA was used as the substrate (FIG. 10). From the plots of the DHCA kinetics, the characteristic curve shapes of the Michaelis-Menten kinetics can be discerned for the 7β-HSDH mutants, and no substrate inhibition was observed. Accordingly, the classical Michaelis-Menten model (equation 1) was used for the evaluation of the kinetic parameters.
[formula] EAX: specific enzyme activity, U mg^−1=μmol min^−1 mg^−1 vmax: maximal specific enzyme activity, U mg^−1=μmol min^−1 mg^−1 cs: substrate or cofactor concentration, mol L^−1 Km: half-saturation concentration, mol L^−1

[2] = First activity assay of purified 7β-HSDH G39D with NADPH or NADH
Description: as §1, with “The final concentrations of substrate and cofactor were 10 mM DHCA and 100 μM NADPH for 7β-HSDH, 10 mM DHCA and 100 μM NADH for 3α-HSDH, and 200 mM glucose and 1000 μM NAD(P) for GDH.” left out
The G39D mutant of the 7β-HSDH was produced as described in WO 2012/080504. The protein was expressed with an N-terminal His tag and purified by IMAC.

[3] = Single-stage biotransformation of DHCA to 3,12-diketo-UDCA with purified NADH-dependent 7β-HSDH mutants; settings: after 16 hrs; 0.2 mg mL^−1 7β-HSDH, 10 U mL^−1 GDH, 0.5 mM NAD, 50 mM DHCA, pH 8.0, 30° C.

Molecule | Km [1] [µM] | vmax (maximal specific enzyme activity) [1] [U mg^−1] | NADH activity [2] | NADPH activity ([2]; 10 mM DHCA, 0.5 mM NADPH and pH 8.0) [U mg^−1] | vmax (maximal specific enzyme activity) ([1]; listed as 7β-HSDH DFKG) [U mg^−1] | conversion of DHCA to 3,12-diketo-UDCA [3] | vmax (maximal specific enzyme activity) ([1]; listed as 7β-HSDH DFK) [U mg^−1]
B1 | 660 ± 120 | 2.90 ± 0.16 | marked NADH activity | 0.040±0.005 |  |  | 
B2 | 380 ± 50 | 5.72 ± 0.19 |  |  | 5.72±0.19 | complete conversion | 
B3 | 420 ± 60 | 3.70 ± 0.13 |  |  |  |  | 
B4 | 920 ± 170 | 4.64 ± 0.27 |  |  |  |  | 
B5 | 290 ± 50 | 5.91 ± 0.23 |  |  |  |  | 5.91±0.23

Source: US10544441B2, “Method for biocatalytic whole cell reduction of dehydrocholic acid compounds, and 7-β-hydroxysteroid dehydrogenase mutants” (Pharmazell GmbH, priority 2014, dated 2020)
